# According to paper PMC12405487:
# How the values were obtained:
# furin (human) [1] = biological target: furin (human) (UniProt P09958); test: enzyme inhibition kinetics (fluorogenic substrate); condition 2: 50 mM Mes/NaOH pH 6.0, 300 mM NaCl, 2 mM CaCl2, 0.2% Triton X-100, 25 °C; substrate Ac-RR(Tle)KR-AMC; triplicates
# furin (human) [2] = biological target: furin (human) (UniProt P09958); test: enzyme inhibition kinetics (fluorogenic substrate); condition 3: 50 mM Hepes/NaOH pH 7.4, 300 mM NaCl, 2 mM CaCl2, 0.2% Triton X-100, 25 °C; substrate Ac-RR(Tle)KR-AMC; triplicates
# [3] = biological target: furin (soluble, mature, active) (UniProt P09958); test: NMR, 2D 1H-15N HMBC of histidine side chains as a function of pH (600 MHz); settings: pH 6.3-7.4; 278 K (~5 °C); 150 mM NaCl; 50 mM NaH2PO4/Na2HPO4 at each adjusted pH
# His72 = His72 (UniProt position 72, HYLFKHKNHPR); test: NMR; settings: 278 K (~5 °C); 150 mM NaCl plus 50 mM sodium phosphate; 50 mM NaH2PO4/Na2HPO4, 150 mM NaCl. The pH was set by dialysis into buffer of the adjusted pH, not by direct acid addition.; Isolated (furin-free) folded prodomain, 0.2 mM
# His75 = His75 (UniProt position 75, FKHKNHPRRSR); test: NMR; settings: 278 K (~5 °C); 150 mM NaCl plus 50 mM sodium phosphate; 50 mM NaH2PO4/Na2HPO4, 150 mM NaCl. The pH was set by dialysis into buffer of the adjusted pH, not by direct acid addition.; Isolated (furin-free) folded prodomain, 0.2 mM
# His85 = His85 (UniProt position 85, RRSAFHITKRL); test: NMR; settings: 278 K (~5 °C); 150 mM NaCl plus 50 mM sodium phosphate; 50 mM NaH2PO4/Na2HPO4, 150 mM NaCl. The pH was set by dialysis into buffer of the adjusted pH, not by direct acid addition.; Isolated (furin-free) folded prodomain, 0.2 mM
# Sequence of furin (soluble, mature, active) (P09958 whole entry): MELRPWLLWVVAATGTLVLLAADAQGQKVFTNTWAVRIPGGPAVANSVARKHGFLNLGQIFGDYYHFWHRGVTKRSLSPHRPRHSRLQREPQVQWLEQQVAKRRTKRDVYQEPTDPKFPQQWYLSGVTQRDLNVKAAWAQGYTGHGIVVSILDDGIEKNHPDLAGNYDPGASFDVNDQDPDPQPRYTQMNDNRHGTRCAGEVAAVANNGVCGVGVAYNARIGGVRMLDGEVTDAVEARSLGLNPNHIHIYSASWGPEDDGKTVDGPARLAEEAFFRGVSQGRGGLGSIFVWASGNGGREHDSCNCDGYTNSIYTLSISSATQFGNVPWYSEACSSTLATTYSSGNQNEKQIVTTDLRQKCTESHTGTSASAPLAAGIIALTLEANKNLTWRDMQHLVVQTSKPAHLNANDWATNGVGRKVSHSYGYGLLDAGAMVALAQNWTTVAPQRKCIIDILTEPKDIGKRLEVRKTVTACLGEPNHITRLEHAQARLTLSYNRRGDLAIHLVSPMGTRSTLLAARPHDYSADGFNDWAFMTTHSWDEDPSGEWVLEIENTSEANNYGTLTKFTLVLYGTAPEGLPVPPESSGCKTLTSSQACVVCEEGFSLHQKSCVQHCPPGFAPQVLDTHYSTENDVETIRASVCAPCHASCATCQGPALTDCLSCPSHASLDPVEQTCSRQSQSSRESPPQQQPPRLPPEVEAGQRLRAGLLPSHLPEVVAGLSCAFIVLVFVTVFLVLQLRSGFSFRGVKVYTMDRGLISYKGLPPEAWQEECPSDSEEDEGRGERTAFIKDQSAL
Molecule,Ki (furin (human) [1]) [nM],Ki (furin (human) [2]) [nM],also measured
PC1/3-prodomain mutant M2 ((77)A-R-S-A-A) (from UniProt P29120 28-110) (domain or fragment),0.88,0.73,
"PC1/3-prodomain, wild type (15N-labelled for NMR)",,,"pKa, His72 of the PC1/3-prodomain (WT) [3]: 4.82 pH units; pKa, His75 of the PC1/3-prodomain (WT) [3]: 5.03 pH units; pKa, His85 of the PC1/3-prodomain (WT) [3]: 5.6 pH units"
"Proprotein convertase 1/3 (PC1/3, neuroendocrine convertase 1) prodomain, wild type (Homo sapiens)",,,pKa (His72): 4.82; pKa (His75): 5.03; pKa (His85): 5.60

# Now from value to molecule, other results behind:
Ki (furin (human) [1]) [nM],Ki (furin (human) [2]) [nM],Molecule,also measured
2.2,0.56,PC1/3-prodomain mutant M1 (R78A) (from UniProt P29120 28-110) (domain or fragment),
,0.139,PC1/3-prodomain mutant M5 ((77)R-K-S-A-R) (from UniProt P29120 28-110) (domain or fragment),
0.14,0.101,PC1/3-prodomain combination mutant M10 (M5 with His72Leu) (domain or fragment) GKRQFVNEWAAEIPGGPEAASAIAEELGYDLLGQIGSLENHYLFKLKNHPRKSARSAFHITKRLSDDDRVIWAEQQYEKERSKR,
